Results: paper PMC6997106, “The Trp triad within the V-domain of the receptor for advanced glycation end products modulates folding, stability and ligand binding” (Bioscience Reports, 2020)
Each block holds one binder with its values, some of them ahead of it.

B1: RAGE V-domain (residues 23-132), wild type (domain or fragment, human, UniProt Q15109 23-132, looked up)
chain: AQNITARIGEPLVLKCKGAPKKPPQRLEWKLNTGRTEAWKVLSPQGGGPWDSVARVLPNGSLFLPAVGIQDEGIFRCQAMNRNGKETKSNYRVRVYQIPGKPEIVDSASE
notes: receptor for advanced glycation end products (RAGE), human, V-domain, residues 23-132 of uniprot Q15109; Cloned into pET15b by NcoI and XhoI; also called WT; wild-type V-domain; source: E. coli Shuffle T7 Express, purified (HisTrap HP, HiTrap SP FF cation exchange)
B2: RAGE V-domain (residues 23-132) W72A (domain or fragment, human, UniProt Q15109 23-132, looked up)
chain: AQNITARIGEPLVLKCKGAPKKPPQRLEWKLNTGRTEAWKVLSPQGGGPADSVARVLPNGSLFLPAVGIQDEGIFRCQAMNRNGKETKSNYRVRVYQIPGKPEIVDSASE
notes: RAGE, human, V-domain, residues 23-132 of uniprot Q15109; Same construct as m1 with the mutation; source: E. coli Shuffle T7 Express, purified (HisTrap HP, HiTrap SP FF cation exchange)
B4: RAGE V-domain (residues 23-132) W61A (domain or fragment, human, UniProt Q15109 23-132, looked up)
chain: AQNITARIGEPLVLKCKGAPKKPPQRLEWKLNTGRTEAAKVLSPQGGGPWDSVARVLPNGSLFLPAVGIQDEGIFRCQAMNRNGKETKSNYRVRVYQIPGKPEIVDSASE
notes: as for B2
B5: Recombinant human S100B (natural protein)
chain: MSELEKAMVALIDVFHQYSGREGDKHKLKKSELKELINNELSHFLEEIKEQEVVDKVMETLDNDGDGECDFQEFMAFVAMVTTACHEFFEHE
notes: S100B, human, uniprot P04271; Homodimer in the crystal structure 5D7F; also called calcium-loaded S100B

How the values were obtained:
[1] = biological target: B5; assay: tryptophan fluorescence lifetime; 1 µM V-domain, with S100B in the presence of 2 mM calcium; excitation 280 nm; amplitude weighted average lifetime τm; settings: both partners purified
[2] = biological target: B1; assay: fluorescence polarisation; 1 µM S100B-FITC in 50 mM Tris, pH 7.0, 2 mM CaCl2 titrated with V-domain stock solutions; 1:1 RAGE:S100B model; apparent; settings: both partners purified
[3] = biological target: T1, RAGE V-domain (residues 23-132) W51A (human, UniProt Q15109 23-132, W51A); assay: as above; settings: both partners purified
T1 construct: RAGE, human, V-domain, residues 23-132 of uniprot Q15109; Same construct as m1 with the mutation; source: E. coli Shuffle T7 Express, purified (HisTrap HP, HiTrap SP FF cation exchange)

[4] = biological target: T2, RAGE V-domain (residues 23-132) W51A/W61A (human, UniProt Q15109 23-132, W51A | W61A); assay: as above; settings: both partners purified
T2 construct: RAGE, human, V-domain, residues 23-132 of uniprot Q15109; Same construct as m1 with the mutations; also called W51/W61; source: E. coli Shuffle T7 Express, purified (HisTrap HP, HiTrap SP FF cation exchange)

[5] = biological target: B4; assay: as above; settings: both partners purified
[6] = biological target: B2; assay: as above; settings: both partners purified
[7] = biological target: T3, RAGE V-domain (residues 23-132) W61A/W72A (human, UniProt Q15109 23-132, W61A | W72A); assay: as above; settings: both partners purified
T3 construct: RAGE, human, V-domain, residues 23-132 of uniprot Q15109; Same construct as m1 with the mutations; source: E. coli Shuffle T7 Express, purified (HisTrap HP, HiTrap SP FF cation exchange)

[8] = biological target: T4, RAGE V-domain (residues 23-132) W51A/W72A (human, UniProt Q15109 23-132, W51A | W72A); assay: as above; settings: both partners purified
T4 construct: RAGE, human, V-domain, residues 23-132 of uniprot Q15109; Same construct as m1 with the mutations; source: E. coli Shuffle T7 Express, purified (HisTrap HP, HiTrap SP FF cation exchange)

[9] = biological target: B1; assay: steady-state tryptophan fluorescence; emission spectra of V-domains alone and as V-domain:S100B complexes; excitation at 295 nm; settings: both partners purified
[10] = biological target: T1, RAGE V-domain (residues 23-132) W51A; assay: as above; settings: both partners purified
[11] = biological target: T2, RAGE V-domain (residues 23-132) …; assay: as above; settings: both partners purified
[12] = biological target: B4; assay: as above; settings: both partners purified
[13] = biological target: B2; assay: as above; settings: both partners purified
[14] = biological target: T3, RAGE V-domain (residues 23-132) …; assay: as above; settings: both partners purified
[15] = biological target: T4, RAGE V-domain (residues 23-132) …; assay: as above; settings: both partners purified
[16] = biological target: the molecule itself; assay: crystal structure; 2 mM S100B with 3 mM peptide W72, CaCl2 present; sitting drop, 0.1 M Na cacodylate pH 6.8, 22% PEG 3350, 5 mM CaCl2, 20°C
[17] = biological target: B5; assay: as above; settings: both partners purified

Binder: B1
Δτm (change of the average Trp fluorescence lifetime with S100B) [1]: -0.83 ns

Binder: B2
Δτm (change of the average Trp fluorescence lifetime with S100B) [1]: -1 ns

Kd [2]: 2700 ± 300 nM
Kd [3]: 480 ± 60 nM
Kd [4]: 660 ± 120 nM
Kd [5]: 870 ± 40 nM
Kd [6]: 1120 ± 1010 nM
Kd [7]: 370 ± 90 nM
Kd [8]: 460 ± 320 nM
B3: FITC-labeled recombinant human S100B (natural protein)
chain: MSELEKAMVALIDVFHQYSGREGDKHKLKKSELKELINNELSHFLEEIKEQEVVDKVMETLDNDGDGECDFQEFMAFVAMVTTACHEFFEHE
modifications: fluorescein (FITC labeling kit, 5-fold excess of FITC over protein; sites not stated)
notes: S100B, human, uniprot P04271; the titrations were fitted with a 1:1 RAGE:S100B model; also called S100B-FITC; FITC-labeled S100B; source: labeled with an FITC labeling kit (Pierce/Thermo Fisher 53027)

Binder: B4
Δτm (change of the average Trp fluorescence lifetime with S100B) [1]: -0.8 ns

Binder: B5
binding result [9]: binds
binding result [10]: binds
binding result [11]: binds
binding result [12]: binds
binding result [13]: binds
binding result [14]: binds
binding result [15]: binds
binding result [16]: binds

binding result [17]: binds
B6: RAGE-derived peptide W72 (RAGE residues 65-79) (peptide)
peptide: Ac-SPQGGGPWDSVARVL-NH2
notes: RAGE, human, residues 65-79; also called W72 peptide; source: synthetic peptide
